Source: the supplement of paper PMC9428881
± gives the standard error.

Experiment: background-corrected fluorescence of 3'-dye-labeled ssDNA relative to brightest sequence (3'-GCGCG) (fraction); higher = brighter dye fluorescence (less quenching)
Method in brief: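 Subtracting background from unlabeled oligos and scaling to the brightest sequence gave the reported fluorescence. Single-stranded DNA bearing a 3' Cy3 or Cy5 dye next to each of 1024 permuted pentamers was assembled on glass slides by light-directed phosphoramidite synthesis. Following a 2 h r.t. acetonitrile wash, slides were scanned at 532 or 635 nm before and after overnight ethylenediamine/ethanol deprotection, and values were averaged over 10 features per array and at least 3 syntheses.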

Row | Sequence | background-corrected fluorescence (dye: Cy3 (3' terminal)) | background-corrected fluorescence (dye: Cy5 (3' terminal))
1 | TTTTTGCATGCTGATCAGCATTTTTTTTTTTTTTTTACGT | 0.584 ± 0.018 | 0.482 ± 0.038
2 | TTTTTGCATCATCATGCGCATTTTTTTTTTTTTTTTGGAT [TAGGT] | 0.617 ± 0.023 | 0.458 ± 0.036
3 | TTTTTTCAGCATGCTGCTGCTTTTTTTTTTTTTTTGTAAA [AAATG] | 0.618 ± 0.014 | 0.513 ± 0.028
4 | TTTTTTGCGCAGCATGCGCATTTTTTTTTTTTTTTATTAT | 0.508 ± 0.031 | 0.418 ± 0.024
5 | TTTTTTGATGATGAGCATCATTTTTTTTTTTTTTTCCCTG [GTCCC] | 0.528 ± 0.048 | 0.364 ± 0.024
6 | TTTTTTGCTGCTCATGATGATTTTTTTTTTTTTTTAAGCC [CCGAA] | 0.443 ± 0.01 | 0.312 ± 0.023
7 | TTTTTTCATGCTGCTGATCATTTTTTTTTTTTTTTGAACG [GCAAG] | 0.541 ± 0.028 | 0.404 ± 0.023
8 | TTTTTTGCGCATCAGCATCATTTTTTTTTTTTTTTATGTG [GTGTA] | 0.607 ± 0.043 | 0.452 ± 0.034
9 | TTTTTTGCTGCGCATCAGCATTTTTTTTTTTTTTTAATGT [TGTAA] | 0.616 ± 0.033 | 0.507 ± 0.031
10 | TTTTTTCATCATCATCATCATTTTTTTTTTTTTTTGGGGG | 0.709 ± 0.059 | 0.635 ± 0.03
11 | TTTTTGCAGCATCATGATGCTTTTTTTTTTTTTTTTTGCA [ACGTT] | 0.546 ± 0.025 | 0.456 ± 0.039
12 | TTTTTGCATGAGCATGATCATTTTTTTTTTTTTTTTCTCG [GCTCT] | 0.506 ± 0.02 | 0.376 ± 0.039
13 | TTTTTTCATGAGCATGCTGCTTTTTTTTTTTTTTTGCTAA [AATCG] | 0.534 ± 0.014 | 0.463 ± 0.032
14 | TTTTTTCAGCAGCATGATCATTTTTTTTTTTTTTTGTTCG [GCTTG] | 0.551 ± 0.0098 | 0.371 ± 0.032
15 | TTTTTTGAGCAGCATGAGCATTTTTTTTTTTTTTTCTTCT | 0.441 ± 0.027 | 0.342 ± 0.027
16 | TTTTTGCATGCTGCTGATGCTTTTTTTTTTTTTTTTAACA [ACAAT] | 0.557 ± 0.022 | 0.405 ± 0.033
17 | TTTTTGCATGAGCAGCATGATTTTTTTTTTTTTTTTCTTC [CTTCT] | 0.382 ± 0.043 | 0.282 ± 0.018
18 | TTTTTGCATGAGCATGCGCATTTTTTTTTTTTTTTTCTAT [TATCT] | 0.501 ± 0.027 | 0.37 ± 0.029

Row | Sequence | background-corrected fluorescence (dye: Cy3 (3' terminal)) | background-corrected fluorescence (dye: Cy5 (3' terminal))
19 | TTTTTTGATGCGCATGCGCATTTTTTTTTTTTTTTCATAT [TATAC] | 0.501 ± 0.036 | 0.397 ± 0.025
20 | TTTTTGCATGCTCAGCATCATTTTTTTTTTTTTTTTAGTG [GTGAT] | 0.541 ± 0.027 | 0.455 ± 0.053
21 | TTTTTTGCTCATGCTGCTGCTTTTTTTTTTTTTTTAGAAA [AAAGA] | 0.64 ± 0.019 | 0.484 ± 0.055
22 | TTTTTGCATCATGATGCTCATTTTTTTTTTTTTTTTGCAG [GACGT] | 0.526 ± 0.033 | 0.425 ± 0.029
23 | TTTTTTGATGCTGATCATGCTTTTTTTTTTTTTTTCACGA [AGCAC] | 0.594 ± 0.013 | 0.471 ± 0.023
24 | TTTTTTGATGATGCGCATCATTTTTTTTTTTTTTTCCATG [GTACC] | 0.542 ± 0.026 | 0.361 ± 0.035
25 | TTTTTTGCTCATCATGAGCATTTTTTTTTTTTTTTAGGCT [TCGGA] | 0.596 ± 0.014 | 0.435 ± 0.028
26 | TTTTTGCATGCTGAGCATGATTTTTTTTTTTTTTTTACTC [CTCAT] | 0.385 ± 0.03 | 0.273 ± 0.018
27 | TTTTTTGATCATGATGATGATTTTTTTTTTTTTTTCGCCC [CCCGC] | 0.406 ± 0.032 | 0.308 ± 0.055
28 | TTTTTTGCTGCTGCTCATGCTTTTTTTTTTTTTTTAAAGA [AGAAA] | 0.693 ± 0.03 | 0.568 ± 0.03
29 | TTTTTGCATCATGCTGATCATTTTTTTTTTTTTTTTGACG [GCAGT] | 0.536 ± 0.016 | 0.433 ± 0.063
30 | TTTTTTGCTGCGCATGCTGCTTTTTTTTTTTTTTTAATAA | 0.578 ± 0.031 | 0.446 ± 0.022
31 | TTTTTGCAGCAGCAGCATCATTTTTTTTTTTTTTTTTTTG [GTTTT] | 0.461 ± 0.0051 | 0.334 ± 0.032
32 | TTTTTGCATGCTGCGCATGATTTTTTTTTTTTTTTTAATC [CTAAT] | 0.458 ± 0.036 | 0.303 ± 0.015
33 | TTTTTTCATGATCATGCGCATTTTTTTTTTTTTTTGCGAT [TAGCG] | 0.5348 ± 0.0049 | 0.474 ± 0.037
34 | TTTTTGCATGATGCTCATGATTTTTTTTTTTTTTTTCAGC [CGACT] | 0.492 ± 0.012 | 0.393 ± 0.047
35 | TTTTTGCATCAGCATGATGATTTTTTTTTTTTTTTTGTCC [CCTGT] | 0.401 ± 0.014 | 0.289 ± 0.018
